Measured values published in IntAct's records for PubMed 27462807.

B1: TP53-binding protein 1 (Homo sapiens), Q12888 (parent)
chain: MDPTGSQLDSDFSQQDTPCLIIEDSQPESQVLEDDSGSHFSMLSRHLPNLQTHKENPVLDVVSNPEQTAGEERGDGNSGFNEHLKENKVADPVDSSNLDTCGSISQVIEQLPQPNRTSSVLGMSVESAPAVEEEKGEELEQKEKEKEEDTSGNTTHSLGAEDTASSQLGFGVLELSQSQDVEENTVPYEVDKEQLQSVTTNSGYTRLSDVDANTAIKHEEQSNEDIPIAEQSSKDIPVTAQPSKDVHVVKEQNPPPARSEDMPFSPKASVAAMEAKEQLSAQELMESGLQIQKSPEPEVLSTQEDLFDQSNKTVSSDGCSTPSREEGGCSLASTPATTLHLLQLSGQRSLVQDSLSTNSSDLVAPSPDAFRSTPFIVPSSPTEQEGRQDKPMDTSVLSEEGGEPFQKKLQSGEPVELENPPLLPESTVSPQASTPISQSTPVFPPGSLPIPSQPQFSHDIFIPSPSLEEQSNDGKKDGDMHSSSLTVECSKTSEIEPKNSPEDLGLSLTGDSCKLMLSTSEYSQSPKMESLSSHRIDEDGENTQIEDTEPMSPVLNSKFVPAENDSILMNPAQDGEVQLSQNDDKTKGDDTDTRDDISILATGCKGREETVAEDVCIDLTCDSGSQAVPSPATRSEALSSVLDQEEAMEIKEHHPEEGSSGSEVEEIPETPCESQGEELKEENMESVPLHLSLTETQSQGLCLQKEMPKKECSEAMEVETSVISIDSPQKLAILDQELEHKEQEAWEEATSEDSSVVIVDVKEPSPRVDVSCEPLEGVEKCSDSQSWEDIAPEIEPCAENRLDTKEEKSVEYEGDLKSGTAETEPVEQDSSQPSLPLVRADDPLRLDQELQQPQTQEKTSNSLTEDSKMANAKQLSSDAEAQKLGKPSAHASQSFCESSSETPFHFTLPKEGDIIPPLTGATPPLIGHLKLEPKRHSTPIGISNYPESTIATSDVMSESMVETHDPILGSGKGDSGAAPDVDDKLCLRMKLVSPETEASEESLQFNLEKPATGERKNGSTAVAESVASPQKTMSVLSCICEARQENEARSEDPPTTPIRGNLLHFPSSQGEEEKEKLEGDHTIRQSQQPMKPISPVKDPVSPASQKMVIQGPSSPQGEAMVTDVLEDQKEGRSTNKENPSKALIERPSQNNIGIQTMECSLRVPETVSAATQTIKNVCEQGTSTVDQNFGKQDATVQTERGSGEKPVSAPGDDTESLHSQGEEEFDMPQPPHGHVLHRHMRTIREVRTLVTRVITDVYYVDGTEVERKVTEETEEPIVECQECETEVSPSQTGGSSGDLGDISSFSSKASSLHRTSSGTSLSAMHSSGSSGKGAGPLRGKTSGTEPADFALPSSRGGPGKLSPRKGVSQTGTPVCEEDGDAGLGIRQGGKAPVTPRGRGRRGRPPSRTTGTRETAVPGPLGIEDISPNLSPDDKSFSRVVPRVPDSTRRTDVGAGALRRSDSPEIPFQAAAGPSDGLDASSPGNSFVGLRVVAKWSSNGYFYSGKITRDVGAGKYKLLFDDGYECDVLGKDILLCDPIPLDTEVTALSEDEYFSAGVVKGHRKESGELYYSIEKEGQRKWYKRMAVILSLEQGNRLREQYGLGPYEAVTPLTKAADISLDNLVEGKRKRRSNVSSPATPTASSSSSTTPTRKITESPRASMGVLSGKRKLITSEEERSPAKRGRKSATVKPGAVGAGEFVSPCESGDNTGEPSALEEQRGPLPLNKTLFLGYAFLLTMATTSDKLASRSKLPDGPTGSSEEEEEFLEIPPFNKQYTESQLRAGAGYILEDFNEAQCNTAYQCLLIADQHCRTRKYFLCLASGIPCVSHVWVHDSCHANQLQNYRNYLLPAGYSLEEQRILDWQPRENPFQNLKVLLVSDQQQNFLELWSEILMTGGAASVKQHHSSAHNKDIALGVFDVVVTDPSCPASVLKCAEALQLPVVSQEWVIQCLIVGERIGFKQHPKYKHDYVSH

Variants of: B1
Settings: with H2BC10, P62807

Variant	effect of a mutation on the interaction
K1628C	decreasing interaction

Variants of: B1
Settings: with H2BC10, P62807
Remark: another data set of the same source

Variant	effect of a mutation on the interaction
T1609C	with no effect
